Data as given in article PMC5995911, “Gas41 links histone acetylation to H2A.Z deposition and maintenance of embryonic stem cell identity” (Cell Discovery, 2018).

How the values were obtained:
[1] = target: Gas41 YEATS mutants with residues H71, S73, Y74 and F96 replaced with alanine; assay: ITC; GAS41 YEATS (15-159) WT or mutants titrated with H3(1-34)K27ac peptide; 15 °C; 20 mM Tris-HCl pH 7.5, 500 mM NaCl, 5% glycerol, 2 mM β-mercaptoethanol; One Set of Binding Sites model
[2] = target: Gas41 YEATS domain (aa 15–159) S73A (human) (UniProt O95619); assay: as above
[3] = target: Gas41 YEATS domain (aa 15–159) with E95 mutated (human) (UniProt O95619); assay: as above
[4] = target: Gas41 YEATS domain (aa 15–159) Y74A (human) (UniProt O95619); assay: as above
[5] = system: J1 mESCs; assay: RA-induced differentiation, expression of Tip60/p400 and SRCAP complex genes (qRT-PCR, Western blot); type: cell-based, mouse; conditions: 1 μM RA, ES cell medium without LIF; vs day 0; technical duplicate
Description: mESCs were plated in 96-well ultra-low attachment round bottom plates (Corning) at 1000 cells/well in ES cell medium without LIF. Media was changed every other day before day 8 and daily thereafter. For RA treatment, mESCs seeded on gelatin-coated dishes were treated with 1 μM RA in ES cell medium without LIF. Undifferentiated mESCs cultured with LIF in gelatin-coated dishes, are considered as EB and RA day 0.
Total RNA extraction, reverse transcription and quantitative real-time PCR (qPCR) were performed as previously described. Gene expression values were calculated by normalization to Actb using the comparative CT method. Primers used in the study are listed in Supplementary Table S6.

fold reduction of binding against wild type [1]	fold reduction of binding against wild type [2]	fold reduction of binding against wild type [3]	fold reduction of binding against wild type [4]	Molecule	change in gene expression of Tip60/p400 and SRCAP complex components [5]
94 fold	14 fold	7 fold	69 fold	H3 (1–34) K27ac peptide (from UniProt P68431 2-35)	–
–	–	–	–	CC1=C(/C=C/C(C)=C/C=C/C(C)=C/C(=O)O)C(C)(C)CCC1 [RA, retinoic acid]	almost all the genes were downregulated
